Measured values: patent US20080214461

T1: activated factor VIII (FVIIIa): Recombinate Antihemophilic Factor activated with thrombin, P00451
T1 chain: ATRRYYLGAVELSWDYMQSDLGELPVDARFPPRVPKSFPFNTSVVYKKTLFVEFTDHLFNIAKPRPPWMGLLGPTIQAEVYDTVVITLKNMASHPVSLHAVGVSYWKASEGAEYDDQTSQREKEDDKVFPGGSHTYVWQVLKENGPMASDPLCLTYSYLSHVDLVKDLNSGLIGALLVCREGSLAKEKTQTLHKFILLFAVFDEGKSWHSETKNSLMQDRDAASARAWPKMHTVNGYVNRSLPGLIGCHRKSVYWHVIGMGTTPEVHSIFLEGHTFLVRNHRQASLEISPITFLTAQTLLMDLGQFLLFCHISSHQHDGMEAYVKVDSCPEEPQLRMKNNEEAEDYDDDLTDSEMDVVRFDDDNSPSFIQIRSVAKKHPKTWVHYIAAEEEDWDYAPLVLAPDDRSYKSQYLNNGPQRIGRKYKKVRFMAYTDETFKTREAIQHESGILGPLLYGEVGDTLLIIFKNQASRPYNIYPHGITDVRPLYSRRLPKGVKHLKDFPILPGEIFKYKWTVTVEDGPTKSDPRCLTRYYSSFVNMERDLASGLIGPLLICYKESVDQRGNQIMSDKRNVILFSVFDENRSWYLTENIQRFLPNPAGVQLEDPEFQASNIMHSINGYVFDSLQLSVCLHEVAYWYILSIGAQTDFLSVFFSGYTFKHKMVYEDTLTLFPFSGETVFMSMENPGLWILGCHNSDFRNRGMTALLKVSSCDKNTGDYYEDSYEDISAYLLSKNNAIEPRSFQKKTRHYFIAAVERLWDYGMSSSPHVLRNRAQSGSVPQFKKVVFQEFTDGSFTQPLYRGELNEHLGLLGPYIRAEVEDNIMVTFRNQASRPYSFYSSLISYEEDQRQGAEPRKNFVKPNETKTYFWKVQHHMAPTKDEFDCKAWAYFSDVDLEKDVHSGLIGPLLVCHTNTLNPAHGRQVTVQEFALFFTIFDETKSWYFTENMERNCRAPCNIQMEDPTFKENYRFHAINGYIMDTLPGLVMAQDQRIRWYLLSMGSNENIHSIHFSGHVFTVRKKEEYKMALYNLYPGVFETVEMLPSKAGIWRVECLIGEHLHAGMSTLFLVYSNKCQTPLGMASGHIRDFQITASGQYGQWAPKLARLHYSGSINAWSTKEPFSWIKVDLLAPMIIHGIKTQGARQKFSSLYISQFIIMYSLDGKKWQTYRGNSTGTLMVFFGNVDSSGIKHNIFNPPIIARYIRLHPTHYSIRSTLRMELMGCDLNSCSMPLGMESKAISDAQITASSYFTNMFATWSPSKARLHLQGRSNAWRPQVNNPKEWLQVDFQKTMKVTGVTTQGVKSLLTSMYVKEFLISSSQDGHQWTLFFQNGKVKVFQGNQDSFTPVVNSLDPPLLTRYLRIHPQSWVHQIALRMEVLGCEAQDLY


Experiments:
[1] = target: T1, activated factor VIII (FVIIIa): …

Sequence of factor X (FX), P00742 (P00742 whole entry, looked up): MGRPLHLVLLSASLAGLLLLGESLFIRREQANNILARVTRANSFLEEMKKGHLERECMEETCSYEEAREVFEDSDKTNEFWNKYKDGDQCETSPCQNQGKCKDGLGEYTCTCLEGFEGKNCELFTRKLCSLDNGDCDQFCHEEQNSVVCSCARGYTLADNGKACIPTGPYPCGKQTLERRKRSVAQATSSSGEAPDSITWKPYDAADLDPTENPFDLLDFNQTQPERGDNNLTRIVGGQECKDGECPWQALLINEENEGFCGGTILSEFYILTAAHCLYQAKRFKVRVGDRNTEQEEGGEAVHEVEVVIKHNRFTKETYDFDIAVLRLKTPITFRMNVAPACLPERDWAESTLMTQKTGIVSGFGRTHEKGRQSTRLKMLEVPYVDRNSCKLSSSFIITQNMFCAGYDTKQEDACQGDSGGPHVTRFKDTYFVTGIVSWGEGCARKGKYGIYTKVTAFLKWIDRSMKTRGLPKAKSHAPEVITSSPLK

Protein	ratio kcat/KM +/- FVIIIa (FX activation) [1]	KM (nM), FX activation with FVIIIa (factor X (FX), P00742) [nM]	KM (nM), FX activation without FVIIIa (factor X (FX), P00742) [nM]	kcat (10^-3 min^-1), FX activation without FVIIIa (factor X (FX), P00742) [min⁻¹]	kcat (min^-1), FX activation with FVIIIa (factor X (FX), P00742) [min⁻¹]	kcat/KM (10^-6 nM^-1 min^-1), FX activation without FVIIIa (factor X (FX), P00742) [nM⁻¹ min⁻¹]	kcat/KM (nM^-1 min^-1), FX activation with FVIIIa (factor X (FX), P00742) [nM⁻¹ min⁻¹]	rate of FX activation against pdFIXa (factor X (FX), P00742)	fold increase of kcat of FX activation against pdFIX (factor X (FX), P00742)
FIX-Y94F/K98T/Y177F (recombinant, full length, HEK 293), activated form (protein) YNSGKLEEFVQGNLERECMEEKCSFEEAREVFENTERTTEFWKQYVDGDQCESNPCLNGGSCKDDINSYECWCPFGFEGKNCELDVTCNIKNGRCEQFCKNSADNKVVCSCTEGYRLAENQKSCEPAVPFPCGRVSVSQTSKLTRAEAVFPDVDYVNSTEAETILDNITQSTQSFNDFTRVVGGEDAKPGQFPWQVVLNGKVDAFCGGSIVNEKWIVTAAHCVETGVKITVVAGEHNIEETEHTEQKRNVIRIIPHHNFNAAINTYNHDIALLELDEPLVLNSYVTPICIADKEYTNIFLKFGSGYVSGWGRVFHKGRSALVLQYLRVPLVDRATCLRSTKFTIFNNMFCAGFHEGGRDSCQGDSGGPHVTEVEGTSFLTGIISWGEECAMKGKYGIYTKVSRYVNWIKEKTKLT	16,424	14	68	0.02	68	0.000293	5	FIX-WT and FIX-Y94F/K98T/Y177F activated FX at the same rate as pdFIXa	–
FIX-Y94F/K98T/Y177F/I213V/E219G (recombinant, full length, HEK 293), activated form (protein) YNSGKLEEFVQGNLERECMEEKCSFEEAREVFENTERTTEFWKQYVDGDQCESNPCLNGGSCKDDINSYECWCPFGFEGKNCELDVTCNIKNGRCEQFCKNSADNKVVCSCTEGYRLAENQKSCEPAVPFPCGRVSVSQTSKLTRAEAVFPDVDYVNSTEAETILDNITQSTQSFNDFTRVVGGEDAKPGQFPWQVVLNGKVDAFCGGSIVNEKWIVTAAHCVETGVKITVVAGEHNIEETEHTEQKRNVIRIIPHHNFNAAINTYNHDIALLELDEPLVLNSYVTPICIADKEYTNIFLKFGSGYVSGWGRVFHKGRSALVLQYLRVPLVDRATCLRSTKFTIFNNMFCAGFHEGGRDSCQGDSGGPHVTEVEGTSFLTGIVSWGEGCAMKGKYGIYTKVSRYVNWIKEKTKLT	9,581	17	40	0.133	528	0.0033	32	–	enhanced the kcat by a factor of 17 and 6, respectively
FIX-Y94F/A95aK/K98T/Y177F/I213V/E219G (recombinant, full length, HEK 293), activated form (protein) YNSGKLEEFVQGNLERECMEEKCSFEEAREVFENTERTTEFWKQYVDGDQCESNPCLNGGSCKDDINSYECWCPFGFEGKNCELDVTCNIKNGRCEQFCKNSADNKVVCSCTEGYRLAENQKSCEPAVPFPCGRVSVSQTSKLTRAEAVFPDVDYVNSTEAETILDNITQSTQSFNDFTRVVGGEDAKPGQFPWQVVLNGKVDAFCGGSIVNEKWIVTAAHCVETGVKITVVAGEHNIEETEHTEQKRNVIRIIPHHNFNKAINTYNHDIALLELDEPLVLNSYVTPICIADKEYTNIFLKFGSGYVSGWGRVFHKGRSALVLQYLRVPLVDRATCLRSTKFTIFNNMFCAGFHEGGRDSCQGDSGGPHVTEVEGTSFLTGIVSWGEGCAMKGKYGIYTKVSRYVNWIKEKTKLT	8,354	13	55	0.061	122	0.00109	9	–	enhanced the kcat by a factor of 17 and 6, respectively
FIX-Y94F/A95aK/K98T/Y177F (recombinant, full length, HEK 293), activated form (protein) YNSGKLEEFVQGNLERECMEEKCSFEEAREVFENTERTTEFWKQYVDGDQCESNPCLNGGSCKDDINSYECWCPFGFEGKNCELDVTCNIKNGRCEQFCKNSADNKVVCSCTEGYRLAENQKSCEPAVPFPCGRVSVSQTSKLTRAEAVFPDVDYVNSTEAETILDNITQSTQSFNDFTRVVGGEDAKPGQFPWQVVLNGKVDAFCGGSIVNEKWIVTAAHCVETGVKITVVAGEHNIEETEHTEQKRNVIRIIPHHNFNKAINTYNHDIALLELDEPLVLNSYVTPICIADKEYTNIFLKFGSGYVSGWGRVFHKGRSALVLQYLRVPLVDRATCLRSTKFTIFNNMFCAGFHEGGRDSCQGDSGGPHVTEVEGTSFLTGIISWGEECAMKGKYGIYTKVSRYVNWIKEKTKLT	5,705	20	73	0.004	7	5.7e-05	–	–	–
